The values that follow come from patent publication US20110130449A1 (ISIS INNOVATION, published 2011).

Test [1] has as its target TAP-tagged Jmjd6 fusion protein (human). Description: tandem affinity purification of TAP-tagged Jmjd6 from HEK293T cells, MS identification.
In test [2] the target is Jmjd6 with an N-terminal deletion of seven amino acids (GFP fusion) (human, UniProt Q5R6G2 8-403). Put plainly: GFP nanotrap pulldown, Western blot.
Test [3] concerns the target Jmjd6 active site mutant ASM1 (GFP fusion) (human, UniProt Q5R6G2 1-403). Description: GFP nanotrap pulldown, Western blot.

B1: cisplatin resistance-associated overexpressed protein (CROP) (other)
chain: MISAAQLLDELMGRDRNLAPDEKRSNVRWDHESVCKYYLCGFCPAELFTNTRSDLGPCEKIHDENLRKQYEKSSRFMKVGYERDFLRYLQSLLAEVERRIRRGHARLALSQNQQSSGAAGPTGKNEEKIQVLTDKIDVLLQQIEELGSEGKVEEAQGMMKLVEQLKEERELLRSTTSTIESFAAQEKQMEVCEVCGAFLIVGDAQSRVDDHLMGKQHMGYAKIKATVEELKEKLRKRTEEPDRDERLKKEKQEREEREKEREREREERERKRRREEEEREKERARDRERRKRSRSRSRHSSRTSDRRCSRSRDHKRSRSRERRRSRSRDRRRSRSHDRSERKHRSRSRDRRRSKSRDRKSYKHRSKSRDREQDRKSKEKEKRGSDDKKSSVKSGSREKQSEDTNTESKESDTKNEVNGTSEDIKSEGDTQSN
notes: also called CROP protein
With B1, the binding result in test [1] is “binds”.

B2: Splicing factor U2AF 65 kD subunit (other)
chain: SDFDEFERQLNENKQERDKENRHRKRSHSRSRSRDRKRRSRSRDRRNRDQRSASRDRRRRSKPLTRGAKEEHGGLIRSPRHEKKKKVRKYWDVPPPGFEHITPMQYKAMQAAGQIPATALLPTMTPDGLAVTPTPVPVVGSQMTRQARRLYVGNIPFGITEEAMMDFFNAQMRLGGLTQAPGNPVLAVQINQDKNFAFLEFRSVDETTQAMAFDGIIFQGQSLKIRRPHDYQPLPGMSENPSVYVPGVVSTVVPDSAHKLFIGGLPNYLNDDQVKELLTSFGPLKAFNLVKDSATGLSKGYAFCEYVDINVTDQAIAGLNGMQLGDKKLLVQRASVGAKNATLVSPPSTINQTPVTLQVPGLMSSQVQMGGHPTEVLCLMNMVLPEELLDDEEYEEIVEDVRDECSKYGLVKSIEIPRPVDGVEVPGCGKIFVEFTSVFDCQKAMQGLTGRKFANRVVVTKYCDPDSYHRRDFW
notes: also called U2 snRNP auxiliary factor 65 KDa subunit
Take B2: the binding result was “binds” in test [1], “no binding” in test [2] and “no binding” in test [3].
